{"source": "paper PMC8936114", "binders": {"B1": {"name": "Scov2_7431_7555_RNA (structured_RNA)", "RNA": "GGGCGAAAACGCCCCAUUUUAUUAUGUAUGGAAAAGUUAUGUGCAUGUUGUAGACGGUUGUAAUUCAUCAACUUGUAUGAUGUGUUACAAACGUAAUAGAGCAACAAGAGUCGAAUGUACAACUAUUGUUAAUGGUGUU", "modifications": "3' biotinylation (Pierce RNA 3' End Biotinylation Kit)"}}, "biological_target": "NSP12 (RNA-dependent RNA polymerase) (SARS-CoV-2, UniProt P0DTD1 4393-5324)", "experiment": "filter binding; 20 mM Tris, 200 mM KCl, room temperature, 1 h; pH not stated; […]", "details": "protein: commercial; tags: His; label: 3' biotin; stem loops"}
{"binder": "B1", "values": [{"measurement": "Kd", "value": 0.017, "unit": "µM"}]}
